From paper PMC7402622 (Science (New York, N.y.), 2020)

B1: H014 humanized monoclonal antibody (IgG) (antibody, V domains shown)
VH: EVQLVQSGAEVKKPGATVKISCKVSGYSFSNYYIHWVKQAPGKSLEWIGYIDPFNGGTSDNLKFKGAATLTADTSTDTAYMELSSLRSEDTAVYYCARSEYDPYYVMDYWGQGTTVTVSS
VL: IVLTQSPFQSVSPKEKVTITCRASQSISSNLHWYQQKPDQSPKLLIKYASQSISGIPSRFSGSGSGTDFTLTINSLEAEDFGIYFCQQTNFWPYIFGQGTKLEIL
B2: H014 Fab fragment (Fab, V domains shown)
VH: EVQLVQSGAEVKKPGATVKISCKVSGYSFSNYYIHWVKQAPGKSLEWIGYIDPFNGGTSDNLKFKGAATLTADTSTDTAYMELSSLRSEDTAVYYCARSEYDPYYVMDYWGQGTTVTVSS
VL: IVLTQSPFQSVSPKEKVTITCRASQSISSNLHWYQQKPDQSPKLLIKYASQSISGIPSRFSGSGSGTDFTLTINSLEAEDFGIYFCQQTNFWPYIFGQGTKLEIL

Columns and labels:
[1] = target: T1, stabilized SARS-CoV-2 S ectodomain trimer (SARS-CoV-2, Wuhan-Hu-1 (GenBank …, UniProt P0DTC2, stabilised)); assay: SPR
[2] = target: T1, stabilized SARS-CoV-2 S ectodomain …; assay: cryo-EM structure

| Binder | binding result [1] | binding result [2] |
| --- | --- | --- |
| B1 | binds |  |
| B2 |  | binds |
